Data on 1 substance can be found in article PMC12421883.

The test concerns the target M. tuberculosis LamA (MmpS3, Rv2198c) fused to a 3X-FLAG tag at the carboxy terminus (M. tuberculosis). Briefly: SDS-PAGE with western blot.

Regarding “M. tuberculosis LamA (MmpS3, Rv2198c) fused to a 3X-FLAG tag at the carboxy terminus (natural protein)”, the stoichiometry N was determined as 2.

The stoichiometry N is a count of units in the complex or per binding partner.
